Experiments:
CD16A F158 = CD16A F158 (human, UniProt P08637 17-208, limits assumed); assay: Table 3; relative to wild-type Fc; method not stated
CD32B (FcγRII-B) = molecular target: T1, CD32B (FcγRII-B) (UniProt P31994 43-217, limits assumed); assay: as above
T1 construct: No species or construct stated
T1 sequence (looked up): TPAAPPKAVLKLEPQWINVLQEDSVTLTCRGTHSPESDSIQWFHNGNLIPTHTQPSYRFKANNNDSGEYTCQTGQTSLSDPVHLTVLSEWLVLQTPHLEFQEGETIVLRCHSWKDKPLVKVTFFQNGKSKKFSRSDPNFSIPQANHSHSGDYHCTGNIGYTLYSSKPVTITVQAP

CD16A V158 = CD16A V158 (human, UniProt P08637 17-208, limits assumed); assay: as above
HER-2 = molecular target: T2, HER-2 (UniProt P04626 23-652, limits assumed); assay: SPR (BIAcore 1000), HER-2 amine-coupled to chip, antibody injected at 6.25-200 nM
T2 construct: also called HER2/neu; erbB-2
Procedure: The kinetic parameters of the binding of eluted and purified antibodies were analyzed using a BIAcore assay (BIAcore instrument 1000, BIAcore Inc., Piscataway, N.J.) and associated software. HER-2 was immobilized on one of the four flow cells (flow cell 2) of a sensor chip surface through amine coupling chemistry (by modification of carboxymethyl groups with mixture of NHS/EDC) such that about 1000 response units (RU) of receptor was immobilized on the surface. Following this, the unreacted active esters were “capped off” with an injection of 1M Et-NH2.

human CD16A (FcγRIII-A) = human CD16A (FcγRIII-A) (human, UniProt P08637 17-208, limits assumed); assay: method not stated; reference not named (Fc-optimized against wild-type)
Chain of human CD16A (FcγRIII-A) (P08637 17-208 limits assumed): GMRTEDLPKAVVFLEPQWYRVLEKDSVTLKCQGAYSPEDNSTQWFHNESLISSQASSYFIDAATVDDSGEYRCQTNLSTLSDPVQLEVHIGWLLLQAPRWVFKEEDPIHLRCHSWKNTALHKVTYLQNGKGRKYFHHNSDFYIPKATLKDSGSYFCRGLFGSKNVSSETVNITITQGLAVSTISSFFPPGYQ

Chain of CD16A V158 (P08637 17-208 F176V limits assumed): as the sequence (P08637 17-208 limits assumed) above, with F160V counted along it
Chain of CD16A F158 (P08637 17-208 limits assumed): as the sequence (P08637 17-208 limits assumed) above

Binder	binding relative to wild-type Fc (fold) (CD16A F158)	binding relative to wild-type Fc (fold) (CD32B (FcγRII-B))	binding relative to wild-type Fc (fold) (CD16A V158)	koff (HER-2)	kon (HER-2)	fold increase in binding (human CD16A (FcγRIII-A))
Fc variant R255L D270E P396L (other, UniProt P01857-1 99-330, looked up, name in EU numbering, domain: Fc region; positions are EU index) EPKSCDKTHTCPPCPAPELLGGPSVFLFPPKPKDTLMISLTPEVTCVVVDVSHEEPEVKFNWYVDGVEVHNAKTKPREEQYNSTYRVVSVLTVLHQDWLNGKEYKCKVSNKALPAPIEKTISKAKGQPREPQVYTLPPSRDELTKNQVSLTCLVKGFYPSDIAVEWESNGQPENNYKTTPLVLDSDGSFFLYSKLTVDKSRWQQGNVFSCSVMHEALHNHYTQKSLSLSPGK	1.65	0.87	1.34	–	–	–
Fc variant R292P V305I P396L (other, UniProt P01857-1 99-330, looked up, name in EU numbering, domain: Fc region; positions are EU index) EPKSCDKTHTCPPCPAPELLGGPSVFLFPPKPKDTLMISRTPEVTCVVVDVSHEDPEVKFNWYVDGVEVHNAKTKPPEEQYNSTYRVVSILTVLHQDWLNGKEYKCKVSNKALPAPIEKTISKAKGQPREPQVYTLPPSRDELTKNQVSLTCLVKGFYPSDIAVEWESNGQPENNYKTTPLVLDSDGSFFLYSKLTVDKSRWQQGNVFSCSVMHEALHNHYTQKSLSLSPGK	1.9	0.92	1.85	–	–	–
Fc variant R255L D270E Y300L P396L (other, UniProt P01857-1 99-330, looked up, name in EU numbering, domain: Fc region; positions are EU index) EPKSCDKTHTCPPCPAPELLGGPSVFLFPPKPKDTLMISLTPEVTCVVVDVSHEEPEVKFNWYVDGVEVHNAKTKPREEQYNSTLRVVSVLTVLHQDWLNGKEYKCKVSNKALPAPIEKTISKAKGQPREPQVYTLPPSRDELTKNQVSLTCLVKGFYPSDIAVEWESNGQPENNYKTTPLVLDSDGSFFLYSKLTVDKSRWQQGNVFSCSVMHEALHNHYTQKSLSLSPGK	1.74	0.87	1.52	–	–	–
ch4D5-wild-type Fc (antibody, human IgG1, kappa, Chimeric 4D5 antibody; wild-type Fc; also called ch4D5-FcWT; ch4D5-FcWT (wild-type Fc)) heavy: not shown light: DIVMTQSHKFMSTSVGDRVSITCKASQDVNTAVAWYQQKPGHSPKLLIYSASFRYTGVPDRFTGSRSGTDFTFTISSVQAEDLAVYYCQQHYTTPPTFGGGTKVEIKRTVAAPSVFIFPPSDEQLKSGTASVVCLLNNFYPREAKVQWKVDNALQSGNSQESVTEQDSKDSTYSLSSTLTLSKADYEKHKVYACEVTHQGLSSPVTKSFNRGEC	–	–	–	~3.2e-07 s⁻¹	170000 M⁻¹ s⁻¹	–
ch4D5-FcMT1 (antibody, human IgG1, kappa) heavy: QVQLQQSGPELVKPGASLKLSCTASGFNIKDTYIHWVKQRPEQGLEWIGRIYPTNGYTRYDPKFQDKATITADTSSNTAYLQVSRLTSEDTAVYYCSRWGGDGFYAMDYWGQGASVTVSSASTKGPSVFPLAPSSKSTSGGTAALGCLVKDYFPEPVTVSWNSGALTSGVHTFPAVLQSSGLYSLSSVVTVPSSSLGTQTYICNVNHKPSNTKVDKRVEPKSCDKTHTCPPCPAPELLGGPSVFLLPPKPKDTLMISRTPEVTCVVVDVSHEDPEVKFNWYVDGVEVHNAKTKPPEEQYNSTLRVVSILTVLHQDWLNGKEYKCKVSNKALPAPIEKTISKAKGQPREPQVYTLPPSRDELTKNQVSLTCLVKGFYPSDIAVEWESNGQPENNYKTTPLVLDSDGSFFLYSKLTVDKSRWQQGNVFSCSVMHEALHNHYTQKSLSLSPGK light: DIVMTQSHKFMSTSVGDRVSITCKASQDVNTAVAWYQQKPGHSPKLLIYSASFRYTGVPDRFTGSRSGTDFTFTISSVQAEDLAVYYCQQHYTTPPTFGGGTKVEIKRTVAAPSVFIFPPSDEQLKSGTASVVCLLNNFYPREAKVQWKVDNALQSGNSQESVTEQDSKDSTYSLSSTLTLSKADYEKHKVYACEVTHQGLSSPVTKSFNRGEC	–	–	–	–	–	10 fold
